For this data set, the target named is human prothrombin (UniProt P00734).

On to “carinactivase-2 from Echis carinatus venom”, for which the “percent of S-2238 hydrolysed by the thrombin formed” value is “followed by carinactivase-2 (2.5%)”. Besides, where the note is “scale: nmol thrombin/mL/min/µmol prothrombin/µmol activator”, the Thrombin generation rate was 1.91.

The values are drawn from patent US20190390248.
